Data from article PMC3748058 (2013).

B1: GFP lamin A WT [human] / GST Nesprin-2 SR52,53 [human] (parent complex)
chain 1: METPSQRRATRSGAQASSTPLSPTRITRLQEKEDLQELNDRLAVYIDRVRSLETENAGLRLRITESEEVVSREVSGIKAAYEAELGDARKTLDSVAKERARLQLELSKVREEFKELKARNTKKEGDLIAAQARLKDLEALLNSKEAALSTALSEKRTLEGELHDLRGQVAKLEAALGEAKKQLQDEMLRRVDAENRLQTMKEELDFQKNIYSEELRETKRRHETRLVEIDNGKQREFESRLADALQELRAQHEDQVEQYKKELEKTYSAKLDNARQSAERNSNLVGAAHEELQQSRIRIDSLSAQLSQLQKQLAAKEAKLRDLEDSLARERDTSRRLLAEKEREMAEMRARMQQQLDEYQELLDIKLALDMEIHAYRKLLEGEEERLRLSPSPTSQRSRGRASSHSSQTQGGGSVTKKRKLESTESRSSFSQHARTSGRVAVEEVDEEGKFVRLRNKSNEDQSMGNWQIKRQNGDDPLLTYRFPPKFTLKAGQVVTIWAAGAGATHSPPTDLVWKAQNTWGCGNSLRTALINSTGEEVAMRKLVRSVTVVEDDEDEDGDDLLHHHHGSHCSSSGDPAEYNLRSRTVLCGTCGQPADKASASGSGAQVGGPISSGSSASSVTVTRSYRSVGGSGGGSFGDNLVTRSYLLGNSSPRTQSPQNCSIM
chain 2: SRFEDWLKSAERTAACPNSSEVLYTSAKEELKRFEAFQRQIHERLTQLELINKQYRRLARENRTDTASRLKQMVHEGNQRWDNLQRRVTAVLRRLRHFTNQREEFEGTRESILVWLTEMDLQLTNVEHFSESDADDKMRQLNGFQQEITLNTNKIDQLIVFGEQLIQKSEPLDAVLIEDELEELHRYCQEVFGRVSRFHRRL

Variants of: B1
Experiment: GST pull-down, western blot quantification; COS7 cell lysates; four to seven independent experiments; parent: 0; read off a plot

First: chain 1 R427G
Second: chain 1 G413C
The screen value of the first is higher: about -15% for the first, about -22% for the second.

Compared with chain 1 V415I, chain 1 G411D is lower in screen value: about 55% for the first, about 11% for the second.

First: chain 1 R419C
Second: chain 1 L421P
The screen value of the first is higher: about -10% for the first, about -29% for the second.

Variant chain 1 R401C has a screen value of about 51%.
